Assays:
Experiment in all cases: SPR
[1] = molecular target: NL1AB (rat neuroligin 1 cholinesterase-like region, with inserts A and B) (rat, UniProt Q62765 48-638)
[2] = molecular target: NL2A (rat neuroligin 2 cholinesterase-like region, with insert A) (rat, UniProt Q62888 46-612)
[3] = molecular target: NL3A1A2 (rat neuroligin 3 cholinesterase-like region, with inserts A1 and A2) (rat, UniProt Q62889 42-633)
NL3A1A2 (rat neuroligin 3 cholinesterase-like region, with inserts A1 and A2), sequence (Q62889 42-633): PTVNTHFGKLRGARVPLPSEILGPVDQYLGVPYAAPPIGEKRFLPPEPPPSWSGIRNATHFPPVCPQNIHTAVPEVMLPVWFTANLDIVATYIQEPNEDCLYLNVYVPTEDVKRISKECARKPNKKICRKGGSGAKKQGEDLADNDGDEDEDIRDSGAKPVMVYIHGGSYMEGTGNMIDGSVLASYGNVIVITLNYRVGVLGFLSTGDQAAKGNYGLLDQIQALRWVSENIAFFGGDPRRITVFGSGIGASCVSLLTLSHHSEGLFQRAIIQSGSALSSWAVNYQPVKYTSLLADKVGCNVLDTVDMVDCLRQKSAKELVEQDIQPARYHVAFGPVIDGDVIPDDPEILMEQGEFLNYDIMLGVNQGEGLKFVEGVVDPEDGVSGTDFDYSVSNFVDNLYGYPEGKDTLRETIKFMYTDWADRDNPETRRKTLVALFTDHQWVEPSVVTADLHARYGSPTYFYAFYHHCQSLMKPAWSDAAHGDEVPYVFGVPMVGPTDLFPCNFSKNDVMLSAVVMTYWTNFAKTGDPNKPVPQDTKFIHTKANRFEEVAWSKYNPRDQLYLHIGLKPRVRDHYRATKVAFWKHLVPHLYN

NL1AB (rat neuroligin 1 cholinesterase-like region, with inserts A and B), sequence (Q62765 48-638): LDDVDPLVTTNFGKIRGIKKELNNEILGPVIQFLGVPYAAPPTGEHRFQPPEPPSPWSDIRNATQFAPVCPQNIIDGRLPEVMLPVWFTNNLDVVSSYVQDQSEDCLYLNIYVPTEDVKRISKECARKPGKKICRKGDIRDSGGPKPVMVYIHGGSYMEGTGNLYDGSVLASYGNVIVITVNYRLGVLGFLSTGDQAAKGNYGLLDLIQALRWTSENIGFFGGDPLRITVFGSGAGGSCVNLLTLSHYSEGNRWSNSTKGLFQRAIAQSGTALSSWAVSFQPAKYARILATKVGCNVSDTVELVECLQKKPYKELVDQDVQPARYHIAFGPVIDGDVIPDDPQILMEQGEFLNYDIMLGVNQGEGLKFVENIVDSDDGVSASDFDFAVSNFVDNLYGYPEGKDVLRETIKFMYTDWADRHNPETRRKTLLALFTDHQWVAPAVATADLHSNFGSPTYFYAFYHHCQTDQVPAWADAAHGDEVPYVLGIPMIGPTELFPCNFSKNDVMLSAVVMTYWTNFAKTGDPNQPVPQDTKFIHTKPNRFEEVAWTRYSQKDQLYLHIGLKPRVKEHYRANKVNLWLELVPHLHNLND
NL2A (rat neuroligin 2 cholinesterase-like region, with insert A), sequence (Q62888 46-612): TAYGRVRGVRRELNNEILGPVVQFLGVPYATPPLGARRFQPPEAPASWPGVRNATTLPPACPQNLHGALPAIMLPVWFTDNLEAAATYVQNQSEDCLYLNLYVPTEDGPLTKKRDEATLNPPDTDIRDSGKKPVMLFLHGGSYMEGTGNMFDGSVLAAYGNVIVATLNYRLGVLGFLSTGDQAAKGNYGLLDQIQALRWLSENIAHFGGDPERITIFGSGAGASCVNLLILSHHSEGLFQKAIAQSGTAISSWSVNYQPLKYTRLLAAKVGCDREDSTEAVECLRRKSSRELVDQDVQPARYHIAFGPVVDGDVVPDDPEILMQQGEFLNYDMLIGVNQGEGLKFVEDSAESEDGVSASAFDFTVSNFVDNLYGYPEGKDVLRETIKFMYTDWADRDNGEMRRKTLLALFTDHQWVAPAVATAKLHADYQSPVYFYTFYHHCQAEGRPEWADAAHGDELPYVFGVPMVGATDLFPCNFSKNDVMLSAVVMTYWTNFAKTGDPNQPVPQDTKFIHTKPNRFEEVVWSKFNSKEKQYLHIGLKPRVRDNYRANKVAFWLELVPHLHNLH

Binder	Kd [1]	Kd [2]	Kd [3]
β-NRX1+4 (mouse β-neurexin 1 LNS domain, with splice insert 4) (domain or fragment, N-glycosylation at Asn184) not shown	2.82 µM	3.17 µM	21 µM
β-NRX2+4 (rat β-neurexin 2 LNS domain, with splice insert 4) (domain or fragment, N-glycosylation at Asn186) not shown	5.66 µM	3.01 µM	48 µM

Source: publication PMC2910870 (Neuron, 2010)
